Data on two molecules can be found in article doi:10.1101/2025.01.28.635353, “DyAb: sequence-based antibody design and property prediction in a low-data regime” (bioRxiv, 2025).

The term Kd denotes the free concentration of one partner at which half of the binding sites on the other are occupied at equilibrium, for simple one-to-one binding. A high value points to a looser complex.

The target of this test is T1, EGFR (Homo sapiens, isoform 1 (assumed), UniProt P00533).
T1 construct: EGFR, the target antigen injected in SPR
Description: SPR; antibody captured on a Protein A chip, target antigen injected 5 min, dissociation 10 min at 30 µL/min; multi-cycle mode; 37 degC; HBS-EP+ (10 mM Hepes pH 7.4, 150 mM NaCl, 0.3 mM EDTA, 0.05% Surfactant P20); 1:1 Langmuir fit; absolute affinities of the leads are medians across all experimental rounds. To be noted: both partners purified.

Changes are numbered by the printed parent chain.

B1: anti-EGFR lead (antibody, V domains shown)
VH: EVKLQQSGDETMRPGASVRMSCKAYGYTFTDYSVHWIRQRPGQGLEWIGIIIPLIDTTRYNQKFKGKAVLTADTSSDTAYMELSRLTFEDSAVYYCARSYGSSGDDWFAYWGQGTLVTVSS
VL: DTVLTQSPALSVSPGERVDISCRASESVSTLLHWYQQKPGQQPTLLISLASSLESGVPARFSGSGSGTDFTLTIDPVEADDTAIYYCQESWNEPYAFGAGTKLELK
notes: the Fab of this antibody was crystallised and deposited as PDB 9MU1 (heavy chain); the Fab of this antibody was crystallised and deposited as PDB 9MU1 (light chain); The methods tell the production (Expi293, purified) only of the DyAb designs; The Fab for the crystal was made in CHO cells; also called aEGFR lead; starting point lead candidate
As to B1, binding was characterised by a dissociation constant (Kd) of 3 nM.

B2: aEGFR-R1-1 (antibody, V domains shown)
VH: B1 VH with V34M, V69T, G101D, S102P
VL: B1 VL
notes: the Fab was crystallised and deposited as PDB 9MSW (heavy chain); as the heavy chain of m1 with four mutations across CDR-H1, CDR-H3 and the framework (Kabat numbering); the Fab was crystallised and deposited as PDB 9MSW (light chain); The Fab for the crystal was made in CHO cells; also called R1-1 design; DyAb design aEGFR-R1-1; source: Expi293, transiently expressed, purified from supernatant
For B2, the binding result is on record as “binds”.
